{"source": "patent US8067674B2", "about": "“Desaturase genes, enzymes encoded thereby, and uses thereof” (Abbott Laboratories, priority 2002, dated 2011)", "molecules": {"B1": {"name": "SDD17: omega-3 desaturase of 358 amino acid residues (SEQ ID NO: 26) encoded by sdd17 from Saprolegnia diclina (ATCC 56851) (protein, listed as Saprolegnia diclina)", "chain": "MTEDKTKVEFPTLTELKHSIPNACFESNLGLSLYYTARAIFNASASAALLYAARSTPFIADNVLLHALVCATYIYVQGVIFWGFFTVGHDCGHSAFSRYHSVNFIIGCIMHSAILTPFESWRVTHRHHHKNTGNIDKDEIFYPHRSVKDLQDVRQWVYTLGGAWFVYLKVGYAPRTMSHFDPWDPLLLRRASAVIVSLGVWAAFFAAYAYLTYSLGFAVMGLYYYAPLFVFASFLVITTFLHHNDEATPWYGDSEWTYVKGNLSSVDRSYGAFVDNLSHHIGTHQVHHLFPIIPHYKLNEATKHFAAAYPHLVRRNDEPIITAFFKTAHLFVNYGAVPETAQIFTLKESAAAAKAKSD"}}, "test_system": "fatty acid substrates", "test": "Yeast expression of the omega-3 desaturase (SDD17, sdd17 in pYX242) with exogenous fatty acid substrates, FAME/GC analysis", "format": "cell-based, Saccharomyces cerevisiae (SC334)", "conditions": "for % Conversion: 24° C.", "from_the_text": "To determine the substrate specificity and the class of reaction catalyzed by the SDD17-protein, sdd17 was heterologously expressed in a Saccharomyces cerevisiae (SC334). Because S. cerevisiae cannot synthesize fatty acids beyond OA (18:1n-9), it is an ideal system to use to determine enzyme activity on substrates longer than OA because no background enzyme activity will be detected. Suitable fatty acid substrates can be exogenously supplied to the host which are taken up by the cell and acted on by the expressed protein of the transformed sdd17 gene.\nClone pRSP19, which contained the full-length omega-3 desaturase (sdd17) from S. diclina cloned into pYX242, was transformed into Saccharomyces cerevisiae (SC334) using the “Alkali-Cation Yeast Transformation”-brand kit (BIO 101, Vista, Calif.). Transformants were selected for leucine auxotrophy on media lacking leucine (DOB [-Leu]). To detect the specific desaturase activity of these clones, transformants were grown in the presence of 50 μM of each of LA (18:2n-6), GLA (18:3n-6),\nDGLA (20:3n-6), AA (20:4n-6), and adrenic acid (22:4n-6). Conversion of these exogenously supplied fatty acid substrates into a product having one additional unsaturation indicates the presence of a specific desaturase activity that is not found in the wild-type S. cerevisiae:\nThe negative control strain was S. cerevisiae transformed with the pYX242 vector. The experimental cultures and the control cultures were grown simultaneously and analyzed.\nThe cultures were vigorously agitated (250 rpm) and grown for 48 hours at 24° C. in the presence of 50 μM (final concentration) of the various substrates (see Table 3). The cells were spun down, washed once in distilled water, and the pellets resuspended in methanol; chloroform was added along with tritridecanoin (as an internal standard). These mixtures were incubated for at least an hour at room temperature, or at 4° C. overnight. The chloroform layer was extracted and filtered through a Whatman filter with 1 gm anhydrous sodium sulfate to remove particulate matter and residual water. The organic solvents were evaporated at 40° C. under a stream of nitrogen. The extracted lipids were then converted to fatty acid methyl esters (FAME) for gas chromatography analysis (GC) by adding 2 ml 0.5 N potassium hydroxide in methanol to a closed tube. The samples were heated to 95° C.-100° C. for 30 minutes and cooled to room temperature. Approximately 2 ml 14% borontrifluoride in methanol was added and the heating repeated. After the extracted lipid mixture cooled, 2 ml of water and 1 ml of hexane were added to extract the FAME for analysis by GC. The percent conversion was calculated using the formula: […]\n(i.e. 15° C.). Here, 50 μM of exogenous substrate was added to the transformants and the cultures were grown for 48 hours at 15° C. Fatty acid analysis was carried out as described above. The overall uptake of substrate by S. cerevisiae at 15° C. was lower than that seen at 24° C. (compare Table 3 & Table 4). However the percent conversion of substrate to product by the enzyme increased at 15° C. Since the presence of lower concentration of exogenous fatty acid substrate seemed to improve the activity of the enzyme, it is possible that fatty acid substrates at high concentrations may exert a feed-back inhibition on this enzyme. […]", "data": [{"molecule": "B1", "values": [{"measurement": "percent conversion of substrate to product at 15° C. compared with 24° C.", "setting": "15° C. vs 24° C., 50 μM substrate, 48 hours", "value": "increased"}, {"measurement": "% Conversion", "setting": "20:3 n-6 (DGLA) to 20:4 n-3 (ETA) (Delta 17), 48 hours, 50 μM substrate", "value": 5, "unit": "%"}, {"measurement": "% Conversion", "setting": "20:4 n-6 (AA) to 20:5 n-3 (EPA) (Delta 17), 48 hours, 50 μM substrate", "value": 13.8, "unit": "%"}, {"measurement": "% Conversion", "setting": "22:4 n-6 (adrenic acid) to 22:5 n-3 (DPA) (Delta 19), 48 hours, 50 μM substrate", "value": 4, "unit": "%"}, {"measurement": "desaturation of C18 omega-6 fatty acyl substrates to their corresponding omega-3 fatty acids", "setting": "under the conditions tested", "value": "did not desaturate"}]}]}
